According to PMC4347857, “Characterization of the Mycobacterial Acyl-CoA Carboxylase Holo Complexes Reveals Their Functional Expansion into Amino Acid Catabolism” (PLoS Pathogens, 2015):

B1: M. tuberculosis AccA1 (Rv2501c) (natural protein)
chain: MFDTVLVANRGEIAVRVIRTLRRLGIRSVAVYSDPDVDARHVLEADAAVRLGPAPARESYLDIGKVLDAAARTGAQAIHPGYGFLAENADFAAACERARVVFLGPPARAIEVMGDKIAAKNAVAAFDVPVVPGVARAGLTDDALVTAAAEVGYPVLIKPSAGGGGKGMRLVQDPARLPEALVSARREAMSSFGDDTLFLERFVLRPRHIEVQVLADAHGNVVHLGERECSLQRRHQKVIEEAPSPLLDPQTRERIGVAACNTARCVDYVGAGTVEFIVSAQRPDEFFFMEMNTRLQVEHPVTEAITGLDLVEWQLRVGAGEKLGFAQNDIELRGHAIEARVYAEDPAREFLPTGGRVLAVFEPAGPGVRVDSSLLGGTVVGSDYDPLLTKVIAHGADREEALDRLDQALARTAVLGVQTNVEFLRFLLADERVRVGDLDTAVLDERSADFTARPAPDDVLAAGGLYRQWALARRAQGDLWAAPSGWRGGGHMAPVRTAMRTPLRSETVSVWGPPESAQVQVGDGEIDCASVQVTREQMSVTISGLRRDYRWAEADRHLWIADERGTWHLREAEEHKIHRAVGARPAEVVSPMPGSVIAVQVESGSQISAGDVVVVVEAMKMEHSLEAPVSGRVQVLVSVGDQVKVEQVLARIKD
notes: also called BC α-subunit of the M. tuberculosis MCC

How the values were obtained:
[1] = target: the molecule itself; experiment: negative-stain electron microscopy
[2] = target: B1; experiment: pull-down; conditions: partners not purified

Row | Binder | stoichiometry N [1] | binding result [2]
1 | B1 | 3 | –
2 | M. tuberculosis AccD1 (Rv2502c), hexa-histidine tagged (natural protein, also called CT β-subunit of the M. tuberculosis MCC; not shown: His6, N-terminal, kept) MTTPSIAIAPSFADEHRRLVAELNNKLAAAALGGNERARKRHVSRGKLLPRERVDRLLDPGSPFLELAPLAAGGMYGDESPGAGIITGIGRVSGRQCVIVANDATVKGGTYYPMTVKKHLRAQEVALQNMLPCIYLVDSGGAFLPRQDEVFPDREHFGRIFYNQATMSAKGIPQVAAVLGSCTAGGAYVPAMSDEAVIVREQGTIFLGGPPLVKAATGEIVSAEELGGGDLHSRTSGVTDHLADDDEDALRIVRAIADTFGPCEPAQWDVRRSVEPKYPQAELYDVVPPDPRVPYDVHEVVVRIVDGSEFSEFKAKYGKTLVTAFARVHGHPVGIVANNGVLFSESALKGAHFIELCDKRKIPLLFLQNIAGFMVGRDYEAGGIAKHGAKMVTAVACARVPKLTVVIGGSYGAGNYSMCGRAYSPRFLWMWPNARISVMGGEQAASVLATVRGEQLSAAGTPWSPDEEEAFKAPIRAQYEDQGNPYYSTARLWDDGIIDPADTRTVVGLALSLCAHAPLDQVGYGVFRM | 6 | binds
